Data taken from the DeepSol protein solubility set.

experiment: soluble on expression in E. coli; label from the status in PepcDB or PDB records

| Sequence | soluble on expression in E. coli |
| --- | --- |
| MNGAIFPWREDSRFQLLIDGPAFFPRMIAAIDRAEQQVDLELYLVEAGACADAVVRALVEAGRRGVIVRCLFDDFGSKAFDAGLRKQLTDAGVILRFYNPIHWRRGVRNFYRDHRKILVVDKALAVVGGTGVTDEFWEPDKDVSQWHEVMVEIAGPLVLDWQALFDRQFHANARRFAWRPKQNFGLDHLPKAPVTGEGLGRVAYADSRQHRDILQSLVRTLHSGQKRIWLATPYFLPTWKVRRALRSAAARGVDVRLLLTGPRTDHPSVRYAGHRYYPRLLRAGVKVFEYQPCFLHLKMVLIDDWVSIGSCNFDHWNLHFNLEANLEAHDPGLTRDVAASFEKDFALSTEITLEDWKARPLWRRVKQRLWGWIDRLVVNLLDQRN | not soluble |
| MMPFEAVIGLEVHVQLNTKTKIFCSCSTSFGESPNSNTCPVCLGLPGALPVLNKEVVKKAIQLGTAIEANINQYSIFARKNYFYPDLPKAYQISQFEVPIVSDGKLEIDTKEGAKIVRIERAHMEEDAGKNIHEGSYSLVDLNRACTPLLEIVSKPDMRNSEEAIAYLKKLHAIVRFIGISDANMQEGNFRCDANVSIRPKGDEKLYTRVEIKNLNSFRFIAKAIEYEIERQSAAWENGRYNEEVVQETRLFDTHKGITLSMRNKEESADYRYFKDPDLYPVFIDEKLLKEAQKINELPSAKKIRYMKDFNLKEDDANLLVSDPLLAQYFESMLHLGVKAKTSVTWLCVELLGRLKAEITLENCGVSTHMLGALAKRIDEGKISGKSAKDVLDKLLEEQGGDVDALIEQMGLSQVNDTEAIVKVIEEVLKNNADKVLEYKSGKDKLFGFFVGQAMKNLKGANPSVVNAILKEKLG | not soluble |
| ATGGGTAATAATTTAATGCAGACGGACCTTTCCGTCTGGGGTATGTATCARCACGCCGATATTGTCGTTAAGTGCGTGATGATTGGGCTTATTTTGGCCTCCGTAGTCACCTGGGCAATCTTCTTCAGTAAGAGCGTAGAGTTCTTTAATCAGAAGCGTCGCCTTAAGCGCGAGCAGCAACTGCTGGCTGAAGCGCGTTCCTTAAACCAGGCCAACGATATCGCCGCTGATTTTGGTAGCAAAAGCTTAAGCCTGCATTTGCTCAATGAAGCGCAGAATGAGCTGGAACTGTCAGAAGGCAGCGACGATAACGAAGGTATTAAAGAACGTACCAGCTTCCGTCTGGAGCGTCGGGTCGCCGCAGTAGGTCGTCAAATGGGCCGCGGTAACGGCTATCTGGCAACCATCGGCGCGATTTCGCCGTTCGTTGGGCTGTTTGGTACGGTCTGGGGCATCATGAACAGCTTTATTGGTATCGCGCAAACGCAGACCACTAACCTGGCAGTCGTTGCGCCGGGTATCGCAGAAGCTCTGTTAGCAACGGCAATCGGTCTGGTGGCAGCGATTCCGGCGGTCGTTATCTATAACGTATTCGCGCGTCAGATTGGCGGCTTTAAAGCGATGCTGGGTGATGTCGCAGCGCAGGTATTGTTGCTGCAAAGCCGTGACCTGGATCTGGAAGCCAGCGCCGCTGCGCATCCGGTTCGTGTCGCACAAAAATTACGCGCAGGATAA | not soluble |
| MRGLLVATWIFVSVAASATPTTTTKSPPPTTTTLSPQILKAKLPPVVKNATWECGTDEFTKSISEGEIQAKCPKLRDHINSCCLQHDGCYEAQSGQKFCDDTFCSCLERRSRSSKSCHDESAPLFCDLVRTFGDGAYEASGPNASTTEESPAEKDDYDYESHVAGLNATPSSST | not soluble |
| YLELNEIESIIKDINTKAQKMHSGIHKRFYLFVALMTEFQALNGMRIGEMLAIQNEDIDFDNKSLNINGTIHWFHDESGGFGVKDTTKTESSYRTIGLSSRSCEILKKAILENKKDSKWNDGYLNRNFVFTNHKGNPMQTERFNKILREAAKDVGIDKEVSSHILRHSHISLLSQQGVSLKAIMDRVGHSDHRTTLSIYSHVTEQMDKDMMNKLEQVKLG | soluble |
| MHLDRQSLEKAKHLIQSGLIDTIEVGTIKGLQEIHRFLFEGLYEFAGKIRDKNIAKGNFRFANCLYLDLILPRIESMPQNNFNQIVEKYVEMNIAHPFLEGNGRATRIWLDLLLKKELKKIVLWDRIDKAAYLSAMERSPVNDLEIKTLLKKHLSSNTNDPLTLIKGITQSYYYEGLLEHHHHHH | not soluble |
| MTKVYIENYGCARNRADGEIMAGLLLSSGYEIVEGEENADIVVVNSCAVKDPTEVKIARRIRELLDRGKKVIVTGCLPHVNPDAIDERVSAVLGVKSIDRIVQAVEYALRGEKLISVPDWRKRNLDKLDFPRLSPRGVHFILPIAEGCLNGCTYCATRSARGVLKSYSPEKIVEWVKWAIRQGYKEIWLSAEDTGCYGFDIGTNLAKLLDEITAIEGEFRIRVGMMNPNHVLKFLDELIEAYKDEKVYKFLHLPVQSGDNEILRRMGRTYTVEEFEEIVNAFRREFPDLNLHTDIIVGFPGESEEAFQRSLELIKRIKPDKVNVSRYSPRPGTIAAKWKQLPGWVVKERSRIMHRVRLQISYEINQRYVGRKVDILVHGEGKKGNVDAVTMNYKHIIIPRGEKGEFARAKVNGATSTYLLGEIVD | soluble |
| MAHHHHHHMNKMKSTKIENPKYKLMKLIGKGTFGKVYSAIDMSTQEAVAIKRSPKWRNKVSREVDLLKKMNGSTNIVKIKSVFYTTTKKGYRIQNIVFKYMTYSLGRYIRMKKQEKRENNQICIGIKDLHKNDFAHRDLKPDNILIDLDSSNIKIEICDLGSAKKVQRNIISIPYICSRWYRAPELLCGSMFYTTEVDLWSLGCIIFELINLCPLFPGKFKKDEYSEECSQIINLIEVIGSPQMSFFENIKDHTSKKNTLLIKELCELNIKPLCWDEILGNILEIENPNERLNIDAVLSNPYFSTLNK | not soluble |
| PIGKSADNMYSYLALVQDDPTVQVVNMAQKAYVEHYIQGDPDLAKLPVLSAAAPFKVGGRKNDPASFVEVEKGQLTFRNAADLYLYPNTLVVMKVSGKEVKEWLECSAGQFNQIDPASSKPQSLINWDGFRTYNFDVIDGVNYQIDVTQPARYDGECQMIHPQAERIKHLTFNGKPVDPQATFLVATNNYRAYGGKFAGTGESHIAFASPDENRSVLAAWIGAQSKKEGAIHPAADNNWRLAPI | not soluble |
| METYTVKLGSDKGLLVFEPAKLTIKPGDTVEFLNNKVPPHNVVFDAALNPAKSADLAKSLSHKQLLMSPGQSTSTTFPADAPAGEYTFYCEPHRGAGMVGKITVAG | soluble |
| MSLRCLVTGATGYVGGRLVPELLDAGHRVRCLARSPDRLRDHPWAGKAEVVRGDVTDADSVARAMEGVDVAYYLVHALGSGDDFEATDRRAARTFAERAAAAGVRRIVYLGGLTPAGVPEGELSPHLRSRTEVGRILLASGVPTTVLRAAVVIGSGSASFEMLRYLTERLPVMVTPSWVHTRIQPVAVRDVLRALVGSATMPREVSRTFDVGGPDILTYREMMERYARVAELPRRLILPVPMLSPGLSSHWVGLVTPVPAAIARPLTESLRHEVVCGENDIVRYVPPPPGYPLGFDDALRLALQRVREARVTTRWSSASVPGAPSDPLPTDPDWAGGSLYTDDRALGVDAPPDALWRVVEGIGGDHGWYSFPLAWAVRGWLDRLVGGVGLRRGRRDAARLRVGDSLDFWRVEEIVPGRLLRLRAEMRLPGLAWLEMYAETDDAGRTRYRQRALFHPHGLAGHAYWWSVSPFHAVVFGGMARNIARAAARAAEGHHHHHH | not soluble |
| MVDLGSDRLPVAVIGAGPVGLAAAAHLAERSVPFVVLEAGDAAATAVQAWSHIQLFSPWEFNTDPAARRLLAAAGWEEPDASALPTGGDLVKQYLQPLAELPALASHIRYGAEVTAISRLGIDRLRTADRDAAPFVLRLADGEEVLARAVIDASGTWRQPNHVGANGLPAHGEKDAAAWINHGLPDVFGADRDQHAGRHTVVVGAGHSAANTLLALAELADTAPGTTITWAIRGADPAASFGGGSDDELPARGAIGSGLKMLVETGRVTLAANFRTHAVRRLGDDPSRDQVELVSRALDGTERSVTADRVVAATGFRPDYRIVDELRLELDPIMSAPRALAPLIDPNQHSCGTVTPHGYRELAHPEPGYYAVGMKSYGRAPTFLMLTGYEQVRSIAAALAGDLEAAQSVELQLPETGVCSVTAGGEALALRLGLTKDQHEQLLHVTAKHLGTSATASDAVLSAATELGIDQTAALQLAAYAADMFDAPGAPGCLEHHHHHH | not soluble |
| VPVQLADLKEVRIAYQSIGSESDPALLLVMGLGGQLIHWPDEVVVALCQQGYRVIRYDNRDVGLSTWVQQPADANLTVEVLRYKLGLPVSSPYSLTDMADDALGLMDALQIRQFHVLGASMGGMIAQHLADLAPSRVESLTLIMTSSGAQGLPMPNAALLQLLARRGAPDREVALEQQADLLAALGSPQVKDDREQLLHQAAVSYDRAFNPEGVKRQIMAILAEPSRVELLNRLRLPVLVVHGTADPLLPVMHGVHVAAHIQGSQLRLIPGLAHRFQEAFKAPLLGAVLPYLKA | not soluble |
| MGSDKIHHHHHHMPQISVTILRGADTIGGSCVKINHGEDSIVLDYGAPLMDSTGVSIDADLASSPSMENGILLDIQQQDTRPPLAYLLSHAHPDHYGLLRSLPKSSNIYLSDSSYSMMTIGNLFYPEALRFSSLEQCRQFTPGKPFQVGPFTVTAFLMDHSAFGACSLLIEVDGKQVYYTGDFRGHGRKSQVSDYIYANVKQPDLMLLEGTTLNGGHSLQFPTEVSVEDAMVSALNEGDGPAFVSASGSNIDRIVSLYNATKRTGKELVIDLYQLYLLEALKKYSPSLPPHKNDHLKVIFPQFQLAIIKSEFGDDFLRYSNRHVNLSKLKGTNYVFRLSPYAMTPYLDSFKEKGVKPKLIYSMWLGYQSKQPKFAEIANKYQESWQYIHTSGHAYLEHLQSFAGNISPKVLVPIHTLNRDKFSSYFDNVRIVENGESIVCE | not soluble |
| MGSDKIHHHHHHMSIKSDKWIRRMAAQHGMIEPFEPNPIRQVNGEKIVSYGTSSYGYDIRCADEFKVFTNINSTIVDPKNFDPNSFVEFKNDFCIIPPNSFALARTVEYFRIPRSVLTVCLGKSTYARCGIIVNVTPFEPEWEGYVTLEFSNTTPLPAKIYAGEGCAQVLFFESDEECEISYKDRGGKYQGQVGVTLPKI | not soluble |
| MAPRKKVNEMVIRKTANLTDKMRKERTVEEFEEVKTAQSKSYESDTSSAESLRQKRTAPSAIRTVQIQKEIVLPYDGNLVSVYEKSSNTRSLDTISEPGDLEEFKKKAEESKYVGPQIVPMKFVTTDVETPVKAIFVSDFDFCQAMHHPPQSSTQSKKVEFSKRFEVEQKFLEEMVADIEKLIVSSGRMDVELKVVKAREENDSPRAKISLVRKIHAEKVDDNLNNQAGLVGFILPDLEMKDHGIPLKITKNQQVPSGQKMFESFKRLFGY | not soluble |
| MIHRIKDEFVNVYIIDRGDHLVLIDTGIESTCEKILKKIEELGKPLKTVIITHYHLDHTGSLKCVKDGTGAKVVAHEEEVKAIEEKTGVRVDVPVKDGDVVEGLKVFHMPGHTRGSICLLDEESGALFVGDLMVERDGKLYEVPQQYSEDPMMNRERIKELLNIEFKAIYPAHGEPVLENAKEKVKELVESFSKGETN | soluble |
| MSLTIKNSLGQSHDYIKMFVKEGDTVVDATCGNGNDTAFLASLVGENGRVFGFDIQDKAIANTTKKLTDLNLIDRVTLIKDGHQNMDKYIDCPVKAVMFNLGYLPSGDHSISTRPETTIQALSKAMELLVTGGIITVVIYYGGDTGFEEKEKVLEFLKGVDQKKFIVQRTDFINQANCPPILVCIEKISEGHHHHHH | soluble |
| MGSDKIHHHHHHMDIISSFGFGRKHIAPILSKLMMLYPKLQIHFDTIDNTKDLIQHSIDLDIRIGNEIAPNMIAKKLASNFRILCASPSYLLKHGVPDSIEDLQTHDCLTISERDQSSVLWKFRHASEDVSVHIKPRFVSNNGEIIHQLAIEGHGIIFRSIWDVADELITGQLQHILPEYWQDADVWAVYPSRLKSSSKLQTCILFIQNELLNRLQHVQNLSRGQLISPAVKREPPPEKVFL | not soluble |
